This passage reports protein stability index results from the supplement of paper PMC10567573.

Sequences and labels used below:
B1: FAM46D (parent)
chain: LELKFVSSLRRQFEFSVDSFQIVL
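Also: lentivirally expressed fusions sorted by FACS into six bins by GFP to DsRed ratio, PSI derived from sequencing read proportions per bin multiplied by bin number.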

Variants of B1 are the subject of this data set. The data set is described as follows: protein stability index of a GFP-peptide fusion (GPS, HEK-293T) (PSI 1-6); higher = more stable. Conditions: c terminus: a fixed tail appended.
As to LELKFVSSVRRQFEFSVDSFQIVL [L9V], the protein stability index was 4.14.

Regarding LELKFVSSIRRQFEFSVDSFQIVL [L9I], the protein stability index is 2.75.

Consider LELKFVSSERRQFEFSVDSFQIVL [L9E], for which the protein stability index was 1.82.

For the variant LELKFVSSQRRQFEFSVDSFQIVL [L9Q], the protein stability index was 3.29.

Consider LEIKFVSSLRRQFEFSVDSFQIVL [L3I], for which the protein stability index amounted to 2.5.

As to LERKFVSSLRRQFEFSVDSFQIVL [L3R], the protein stability index is 2.23.

As to LESKFVSSLRRQFEFSVDSFQIVL [L3S], the protein stability index came to 3.84.

Regarding LEDKFVSSLRRQFEFSVDSFQIVL [L3D], the protein stability index worked out at 3.2.

Turning to LELKFVSSLRRQFEFSVDYFQIVL [S19Y], the protein stability index was 2.75.

Take LELKFVSSLRRQFEFSVDTFQIVL [S19T]: the protein stability index is 2.43.

Consider LELKFVSSLRRQFEFSVDSFQIQL [V23Q], for which the protein stability index is 2.29.

As for LELKFVSSLRRQFEFSVDSFQIHL [V23H], the protein stability index worked out at 2.67.

On to LELKFVSSLRRQFEFSVDSFQINL [V23N], for which the protein stability index turned out to be 3.11.

For the variant LELKFVSSLRRQFEFSVDSFQILL [V23L], the protein stability index was determined as 2.9.

In the case of LELKFVSSLRRQFEFSVDSFQIFL [V23F], the protein stability index worked out at 1.98.

LELKFISSLRRQFEFSVDSFQIVL [V6I]: the protein stability index stood at 2.95.

LELKFASSLRRQFEFSVDSFQIVL [V6A]: the protein stability index is 2.77.

Consider LELKFRSSLRRQFEFSVDSFQIVL [V6R], for which the protein stability index turned out to be 3.15.

As for LELKFWSSLRRQFEFSVDSFQIVL [V6W], the protein stability index was 4.

Turning to LELKEVSSLRRQFEFSVDSFQIVL [F5E], the protein stability index was determined as 1.4.

As to LELKMVSSLRRQFEFSVDSFQIVL [F5M], the protein stability index amounted to 4.22.

For LELKCVSSLRRQFEFSVDSFQIVL [F5C], the protein stability index was 3.27.

With LELKRVSSLRRQFEFSVDSFQIVL [F5R], the protein stability index worked out at 2.39.

On to LELKFVSSLRRQFEFSVDSGQIVL [F20G], for which the protein stability index was determined as 2.96.

In the case of LELKFVSSLRRQFEFSVDSIQIVL [F20I], the protein stability index came out at 3.44.

LELKFVSSLRRGFEFSVDSFQIVL [Q12G]: the protein stability index came to 2.76.

In the case of LELKFVSSLRRPFEFSVDSFQIVL [Q12P], the protein stability index came to 2.65.

With LELKFVSSLRRFFEFSVDSFQIVL [Q12F], the protein stability index worked out at 2.68.

As to LELKFVSSLRRSFEFSVDSFQIVL [Q12S], the protein stability index was determined as 3.06.

Regarding LELKFVSSLRRRFEFSVDSFQIVL [Q12R], the protein stability index turned out to be 2.39.

On to LELKFVSSLRRVFEFSVDSFQIVL [Q12V], for which the protein stability index was found to be 3.44.

Regarding LELKFVSSLRRAFEFSVDSFQIVL [Q12A], the protein stability index worked out at 4.78.

Turning to LELKFVSSLRRQFEFEVDSFQIVL [S16E], the protein stability index is 2.89.

Turning to LELKFVSSLRRQFEFIVDSFQIVL [S16I], the protein stability index was 2.93.

Turning to LELKFVSSLRRQFEFKVDSFQIVL [S16K], the protein stability index came to 3.51.

With LELKFVSSLRRQFEFFVDSFQIVL [S16F], the protein stability index worked out at 2.79.

With LELKFVSSLRRQFLFSVDSFQIVL [E14L], the protein stability index came to 2.84.

As to LELKFVSSLRRQFMFSVDSFQIVL [E14M], the protein stability index is 2.77.

In the case of LELKFVSSLRRQFRFSVDSFQIVL [E14R], the protein stability index turned out to be 2.17.

Take LELKFVSSLRRQFKFSVDSFQIVL [E14K]: the protein stability index amounted to 3.16.

On to LELKFVSSLRRQFDFSVDSFQIVL [E14D], for which the protein stability index turned out to be 4.

Consider LELKFVSSLRRQFIFSVDSFQIVL [E14I], for which the protein stability index was 3.52.

For the variant LELKFVSSLRRQFVFSVDSFQIVL [E14V], the protein stability index stood at 2.06.

On to LELKFVSSLRRQFEFSRDSFQIVL [V17R], for which the protein stability index came to 3.4.

LELKFVSSLRRQFEFSPDSFQIVL [V17P]: the protein stability index is 2.44.

LELNFVSSLRRQFEFSVDSFQIVL [K4N]: the protein stability index was 2.95.

For the variant LELKFVSSLRRQCEFSVDSFQIVL [F13C], the protein stability index worked out at 4.36.

As for LELKFVSSLRRQIEFSVDSFQIVL [F13I], the protein stability index was 3.87.

Take LELKFVSSLRRQLEFSVDSFQIVL [F13L]: the protein stability index was 3.36.

As for LELKFVSSLRRQYEFSVDSFQIVL [F13Y], the protein stability index was determined as 1.76.

As to LELKFVSSLRRQHEFSVDSFQIVL [F13H], the protein stability index is 2.73.

For LELKFVSSLRRQFEFSVDSFQIVA [L24A], the protein stability index was determined as 2.78.

Consider LELKFVSSLRRQFEFSVDSFQIVI [L24I], for which the protein stability index came to 3.26.

In the case of LELKFVSSLRRQFEFSVDSFQIVC [L24C], the protein stability index turned out to be 3.35.

For LELKFVSSLRRQFEFSVDSFQIVE [L24E], the protein stability index turned out to be 3.4.

Consider LELKFVSSLRRQFEFSVDSFQIVN [L24N], for which the protein stability index came out at 2.39.

With LELKFVSSLRRQFEFSVDSFQIVM [L24M], the protein stability index came out at 2.73.

Take LELKFVMSLRRQFEFSVDSFQIVL [S7M]: the protein stability index turned out to be 3.02.

As for LELKFVFSLRRQFEFSVDSFQIVL [S7F], the protein stability index is 4.35.

For LELKFVESLRRQFEFSVDSFQIVL [S7E], the protein stability index was 4.25.

On to LELKFVWSLRRQFEFSVDSFQIVL [S7W], for which the protein stability index is 2.37.

In the case of LELKFVQSLRRQFEFSVDSFQIVL [S7Q], the protein stability index amounted to 2.43.

Take LELKFVYSLRRQFEFSVDSFQIVL [S7Y]: the protein stability index was found to be 3.11.

Consider LELKFVKSLRRQFEFSVDSFQIVL [S7K], for which the protein stability index stood at 2.57.

Turning to LFLKFVSSLRRQFEFSVDSFQIVL [E2F], the protein stability index turned out to be 2.6.

LGLKFVSSLRRQFEFSVDSFQIVL [E2G]: the protein stability index came to 2.65.

With LTLKFVSSLRRQFEFSVDSFQIVL [E2T], the protein stability index was 2.78.

As for LCLKFVSSLRRQFEFSVDSFQIVL [E2C], the protein stability index came to 2.74.

Turning to LQLKFVSSLRRQFEFSVDSFQIVL [E2Q], the protein stability index came out at 2.48.

Regarding LLLKFVSSLRRQFEFSVDSFQIVL [E2L], the protein stability index amounted to 1.7.

For LELKFVSSLRQQFEFSVDSFQIVL [R11Q], the protein stability index was determined as 3.05.

As for LELKFVSSLRYQFEFSVDSFQIVL [R11Y], the protein stability index was 3.14.

With LELKFVSSLRCQFEFSVDSFQIVL [R11C], the protein stability index was 3.03.

On to LELKFVSSLRKQFEFSVDSFQIVL [R11K], for which the protein stability index is 3.21.

On to LELKFVSSLREQFEFSVDSFQIVL [R11E], for which the protein stability index was found to be 3.47.

In the case of LELKFVSSLRFQFEFSVDSFQIVL [R11F], the protein stability index turned out to be 3.08.

As to LELKFVSRLRRQFEFSVDSFQIVL [S8R], the protein stability index turned out to be 2.15.

For LELKFVSPLRRQFEFSVDSFQIVL [S8P], the protein stability index was 2.69.

On to EELKFVSSLRRQFEFSVDSFQIVL [L1E], for which the protein stability index is 2.65.

Take QELKFVSSLRRQFEFSVDSFQIVL [L1Q]: the protein stability index worked out at 2.32.

As for GELKFVSSLRRQFEFSVDSFQIVL [L1G], the protein stability index is 2.02.

As to DELKFVSSLRRQFEFSVDSFQIVL [L1D], the protein stability index amounted to 1.9.

Take LELKFVSSLPRQFEFSVDSFQIVL [R10P]: the protein stability index amounted to 3.23.

Regarding LELKFVSSLLRQFEFSVDSFQIVL [R10L], the protein stability index came out at 3.46.

Turning to LELKFVSSLRRQFEFSVDSFQRVL [I22R], the protein stability index is 2.04.

Consider LELKFVSSLRRQFEGSVDSFQIVL [F15G], for which the protein stability index is 3.1.

As for LELKFVSSLRRQFEVSVDSFQIVL [F15V], the protein stability index amounted to 4.5.

For the variant LELKFVSSLRRQFELSVDSFQIVL [F15L], the protein stability index was 3.69.

As to LELKFVSSLRRQFEDSVDSFQIVL [F15D], the protein stability index is 2.09.

LELKFVSSLRRQFEFSVDSFKIVL [Q21K]: the protein stability index worked out at 3.44.

Turning to LELKFVSSLRRQFEFSVDSFLIVL [Q21L], the protein stability index came to 2.24.

As to LELKFVSSLRRQFEFSVDSFDIVL [Q21D], the protein stability index was 2.69.

For LELKFVSSLRRQFEFSVQSFQIVL [D18Q], the protein stability index came to 3.71.

Consider LELKFVSSLRRQFEFSVVSFQIVL [D18V], for which the protein stability index was found to be 3.13.
